Assay results reported in FireProtDB (doi:10.1016/j.bbadis.2004.06.012).

B1: Aryl-hydrocarbon-interacting protein-like 1, Q9NZN9 (parent)
chain: MDAALLLNVEGVKKTILHGGTGELPNFITGSRVIFHFRTMKCDEERTVIDDSRQVGQPMHIIIGNMFKLEVWEILLTSMRVHEVAEFWCDTIHTGVYPILSRSLRQMAQGKDPTEWHVHTCGLANMFAYHTLGYEDLDELQKEPQPLVFVIELLQVDAPSDYQRETWNLSNHEKMKAVPVLHGEGNRLFKLGRYEEASSKYQEAIICLRNLQTKEKPWEVQWLKLEKMINTLILNYCQCLLKKEEYYEVLEHTSDILRHHPGIVKAYYVRARAHAEVWNEAEAKADLQKVLELEPSMQKAVRRELRLLENRMAEKQEEERLRCRNMLSQGATQPPAEPPTEPPAQSSTEPPAEPPTAPSAELSAGPPAEPATEPPPSPGHSLQH

Variants of: B1
Conditions: Homo sapiens; pH 7.9; Thermal; CD; sodium Phosphate 5 mM; transition: 2; whole UniProt chain shown

Row | Variant | Tm | change of melting temperature, mutant - wild type (higher = more stable)
1 | T114I | 34.8 °C | -9.3 °C
2 | W278X | 33.2 °C | -10.9 °C
3 | A197P | 40.5 °C | -3.6 °C
4 | R302L | 43.2 °C | -0.9 °C
5 | C239R | 46.7 °C | 2.6 °C
6 | I206N | 41.4 °C | -2.7 °C
7 | G262S | 40.1 °C | -4 °C
